Laboratory results as given in US6682731 (LUDWIG INSTITUTE FOR CANCER RESEARCH, dated 2004).

Target: T1, HLA-A2 molecule (MHC class I heterodimer, no peptide of the filing added) (human)
T1 construct: as control target of the CTL assays it stood on T2 cells without added peptide or on COS-7 cells transfected with HLA-A2 alone; The subtype is printed only as HLA-A2.01 for the transfected gene; also called HLA-A2.01; MHC class-I molecule
Test: HLA-A2 assembly/stabilisation in 0.174 cell lysate with 10 and 20 uM peptide, immunoprecipitation with mAb BB7.2, gel
Description: It is an HLA-A2 presenting cell line deficient in the pathway which supplies peptides to the endoplasmic reticulum, the site of assembly of MHC class-I heterodimers. The cell line can assemble MHC class-I molecules, but these are unstable and, on cell lysis, dissociate into free heavy and light chains during overnight incubation. The heterodimers can, however, be stabilized in vitro via addition of appropriate peptide ligands. […] Thus, the stabilized molecules can be immunoprecipitated with antibodies specific for the MHC class-I molecule.
In the first part of these experiments, peptides were tested to determine if they facilitated assembly of HLA-A2 in the cell line. […] The cells were then washed, once, with phosphate buffered saline, and then resuspended in 10 ml of lysis buffer (0.5% NP-40; 0.5% Mega 9, 150 mM NaCl, 5 mM EDTA, 50 mM Tris [pH 7.5], 2 mM phenylmethylsulfonylfluoride, 5 mM iodoacetamide). The lysates were then incubated with peptide (10 μM and 20 μM), for 15–18 hours. Nuclei were then pelleted in a microfuge, and the lysates were precleared, overnight, at 4° C. with 0.2 ml of washed, 10% (w/v) Staphylococcus A organisms. […] The mixtures were incubated for 90 minutes on ice, followed by addition of bovine serum albumin to 1% (w/v), and 100 ul of 5% (w/v) protein-A Sepharose beads.

TLVEVTLGEV [peptide SEQ ID NO: 7, Thr Leu Val Glu Val Thr Leu Gly Glu Val]: binds.
